Measurements reported in IntAct's records for PubMed 21151104.

B1: T-box transcription factor TBX21 (Mus musculus), Q9JKD8 (parent)
chain: MGIVEPGCGDMLTGTEPMPSDEGRGPGADQQHRFFYPEPGAQDPTDRRAGSSLGTPYSGGALVPAAPGRFLGSFAYPPRAQVAGFPGPGEFFPPPAGAEGYPPVDGYPAPDPRAGLYPGPREDYALPAGLEVSGKLRVALSNHLLWSKFNQHQTEMIITKQGRRMFPFLSFTVAGLEPTSHYRMFVDVVLVDQHHWRYQSGKWVQCGKAEGSMPGNRLYVHPDSPNTGAHWMRQEVSFGKLKLTNNKGASNNVTQMIVLQSLHKYQPRLHIVEVNDGEPEAACSASNTHVFTFQETQFIAVTAYQNAEITQLKIDNNPFAKGFRENFESMYASVDTSVPSPPGPNCQLLGGDPFSPLLSNQYPVPSRFYPDLPGQPKDMISQPYWLGTPREHSYEAEFRAVSMKPTLLPSAPGPTVPYYRGQDVLAPGAGWPVAPQYPPKMSPAGWFRPMRTLPMDPGLGSSEEQGSSPSLWPEVTSLQPEPSDSGLGEGDTKRRRISPYPSSGDSSSPAGAPSPFDKETEGQFYNYFPN

Variants of: B1
Conditions: with runx1_mouse Runx1, Q03347
Sequence of runx1_mouse Runx1, Q03347 (Q03347 whole entry): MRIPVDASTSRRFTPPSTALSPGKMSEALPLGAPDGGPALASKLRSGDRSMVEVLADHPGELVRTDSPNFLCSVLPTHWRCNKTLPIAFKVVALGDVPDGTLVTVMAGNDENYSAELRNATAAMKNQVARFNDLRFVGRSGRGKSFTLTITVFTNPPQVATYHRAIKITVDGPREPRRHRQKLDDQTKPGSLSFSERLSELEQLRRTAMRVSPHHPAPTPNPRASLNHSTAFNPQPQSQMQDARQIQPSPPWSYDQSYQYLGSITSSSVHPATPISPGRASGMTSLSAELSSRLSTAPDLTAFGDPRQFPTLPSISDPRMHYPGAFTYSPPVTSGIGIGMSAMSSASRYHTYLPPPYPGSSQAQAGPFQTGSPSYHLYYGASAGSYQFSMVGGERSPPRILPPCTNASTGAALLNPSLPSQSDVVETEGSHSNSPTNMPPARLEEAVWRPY

effect of a mutation on the interaction | Variant
disrupting interaction | MGIVEPGCGDMLTGTEPMPSDEGRGPGADQQHRFFYPEPGAQDPTDRRAGSSLGTPYSGGALVPAAPGRFLGSFAYPPRAQVAGFPGPGEFFPPPAGAEGYPPVDGYPAPDPRAGLYPGPREDYALPAGLEVSGKLRVALSNHLLWSKFNQHQTEMIITKQGRRMFPFLSFTVAGLEPTSHYRMFVDVVLVDQHHWRYQSGKWVQCGKAEGSMPGNRLYVHPDSPNTGAHWMRQEVSFGKLKLTNNKGASNNVTQMIVLQSLHKYQPRLHIVEVNDGEPEAACSASNTHVFTFQETQFIAVTAFQNAEITQLKIDNNPFAKGFRENFESMYASVDTSVPSPPGPNCQLLGGDPFSPLLSNQYPVPSRFYPDLPGQPKDMISQPYWLGTPREHSYEAEFRAVSMKPTLLPSAPGPTVPYYRGQDVLAPGAGWPVAPQYPPKMSPAGWFRPMRTLPMDPGLGSSEEQGSSPSLWPEVTSLQPEPSDSGLGEGDTKRRRISPYPSSGDSSSPAGAPSPFDKETEGQFYNYFPN [Y304F]
